Article PMC3393671
Positions count from the first letter of the chain named. Names may count otherwise.

B1: GST-Irga6, Q9QZ85 E110R; R111E (protein)
chain: MGQLFSSPKSDENNDLPSSFTGYFKKFNTGRKIISQEILNLIELRMRKGNIQLTNSAISDALKEIDSSVLNVAVTGETGSGKSSFINTLRGIGNEEEGAAKTGVVEVTMREHPYKHPNIPNVVFWDLPGIGSTNFPPNTYLEKMKFYEYDFFIIISATRFKKNDIDIAKAISMMKKEFYFVRTKVDSDITNEADGKPQTFDKEKVLQDIRLNCVNTFRENGIAEPPIFLLSNKNVCHYDFPVLMDKLISDLPIYKRHNFMVSLPNITDSVIEKKRQFLKQRIWLEGFAADLVNIIPSLTFLLDSDLETLKKSMKFYRTVFGVDETSLQRLARDWEIEVDQVEAMIKSPAVFKPTDEETIQERLSRYIQEFCLANGYLLPKNSFLKEIFYLKYYFLDMVTEDAKTLLKEICL
B2: GST-Irga6, Q9QZ85 T88R (protein)
chain: B1 chain with T88R, R110E, E111R
B3: GST-Irga6, Q9QZ85 K169E (protein)
chain: B1 chain with R110E, E111R, K169E
B4: GST-Irga6, Q9QZ85 S132R (protein)
chain: B1 chain with R110E, E111R, S132R
B5: GST-Irga6, Q9QZ85 K196D (protein)
chain: B1 chain with R110E, E111R, K196D
B6: GST-Irga6, Q9QZ85 E106R (protein)
chain: B1 chain with E106R, R110E, E111R
B7: GST-Irga6, Q9QZ85 T102D (protein)
chain: B1 chain with T102D, R110E, E111R
B8: GST-Irga6, Q9QZ85 N220R (protein)
chain: B1 chain with R110E, E111R, N220R
B9: GST-Irga6, Q9QZ85 K145E (protein)
chain: B1 chain with R110E, E111R, K145E
B10: GST-Irga6, Q9QZ85 Q198E (protein)
chain: B1 chain with R110E, E111R, Q198E
B11: GST-Irga6, Q9QZ85 E142R (protein)
chain: B1 chain with R110E, E111R, E142R
B12: GST-Irga6, Q9QZ85 I209R (protein)
chain: B1 chain with R110E, E111R, I209R
B13: GST-Irga6, Q9QZ85 K162E (protein)
chain: B1 chain with R110E, E111R, K162E
B14: GST-Irga6, Q9QZ85 R159E (protein)
chain: B1 chain with R110E, E111R, R159E
B15: GST-Irga6, Q9QZ85 G195R (protein)
chain: B1 chain with R110E, E111R, G195R
B16: GST-Irga6, Q9QZ85 T108D (protein)
chain: B1 chain with T108D, R110E, E111R
B17: GST-Irga6, Q9QZ85 V205R (protein)
chain: B1 chain with R110E, E111R, V205R
B18: GST-Irga6, Q9QZ85 G103R (protein)
chain: B1 chain with G103R, R110E, E111R
B19: GST-Irga6, Q9QZ85 N212R (protein)
chain: B1 chain with R110E, E111R, N212R
B20: GST-Irga6, Q9QZ85 C213R (protein)
chain: B1 chain with R110E, E111R, C213R
B21: GST-Irga6, Q9QZ85 K161E (protein)
chain: B1 chain with R110E, E111R, K161E
B22: GST-Irga6, Q9QZ85 E77A (protein)
chain: B1 chain with E77A, R110E, E111R
B23: GST-Irga6, Q9QZ85 N191R (protein)
chain: B1 chain with R110E, E111R, N191R
B24: GST-Irga6, Q9QZ85 M173W (protein)
chain: B1 chain with R110E, E111R, M173W
B25: GST-Irga6, Q9QZ85 P197H (protein)
chain: B1 chain with R110E, E111R, P197H

What follows are binders tested against ROP5 of T. gondii strain RH-YFP (isoforms not told apart), F2YGR7 (assay: pull-down (quantitated Western blot)). Settings: chain shown with the change; 25 µg protein/100 µl 1:1 bead suspension; RH-YFP strain T. gondii lysates; 3E2 antibody (anti-ROP5); GST signal subtracted; parent: est. 100; read off a plot.
ROP5 of T. gondii strain RH-YFP (isoforms not told apart), F2YGR7, sequence (F2YGR7 25-549): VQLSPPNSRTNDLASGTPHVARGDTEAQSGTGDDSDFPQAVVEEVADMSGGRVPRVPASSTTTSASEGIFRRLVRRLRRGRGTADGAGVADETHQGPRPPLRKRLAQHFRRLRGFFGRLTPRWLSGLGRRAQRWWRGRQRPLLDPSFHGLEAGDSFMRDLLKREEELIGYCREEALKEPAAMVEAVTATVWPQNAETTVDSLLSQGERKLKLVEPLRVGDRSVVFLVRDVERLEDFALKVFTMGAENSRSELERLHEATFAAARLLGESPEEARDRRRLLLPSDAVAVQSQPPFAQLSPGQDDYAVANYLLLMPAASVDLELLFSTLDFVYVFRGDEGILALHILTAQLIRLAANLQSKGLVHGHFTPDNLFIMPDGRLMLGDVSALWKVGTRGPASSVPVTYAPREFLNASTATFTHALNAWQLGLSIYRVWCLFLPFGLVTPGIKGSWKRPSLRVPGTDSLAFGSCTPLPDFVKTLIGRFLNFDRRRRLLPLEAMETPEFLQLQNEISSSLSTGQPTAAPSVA

Question: With B1 as the binder, how does the percent of parent (% of wild-type intensity) read?
Answer: 17

Question: For B2, which percent of parent (% of wild-type intensity) is on record?
Answer: 51

Question: For B3, which percent of parent (% of wild-type intensity) is on record?
Answer: 22

Question: For B4, which percent of parent (% of wild-type intensity) is on record?
Answer: 45

Question: With B5 as the binder, how does the percent of parent (% of wild-type intensity) read?
Answer: 1.8

Question: Which percent of parent (% of wild-type intensity) does the source give for B6 here?
Answer: 110

Question: With B7 as the binder, how does the percent of parent (% of wild-type intensity) read?
Answer: 110

Question: With B8 as the binder, how does the percent of parent (% of wild-type intensity) read?
Answer: 20

Question: For B9, which percent of parent (% of wild-type intensity) is on record?
Answer: 100

Question: How did the percent of parent (% of wild-type intensity) turn out when B10 was run?
Answer: 32

Question: B11 was tested. Which percent of parent (% of wild-type intensity) did it give?
Answer: 73

Question: With B12 as the binder, how does the percent of parent (% of wild-type intensity) read?
Answer: 5

Question: Which percent of parent (% of wild-type intensity) does the source give for B13 here?
Answer: 3.5

Question: B14 was tested. Which percent of parent (% of wild-type intensity) did it give?
Answer: 5.5

Question: With B15 as the binder, how does the percent of parent (% of wild-type intensity) read?
Answer: 6.5

Question: For B16, which percent of parent (% of wild-type intensity) is on record?
Answer: 77

Question: B17 was tested. Which percent of parent (% of wild-type intensity) did it give?
Answer: 10

Question: B18 was tested. Which percent of parent (% of wild-type intensity) did it give?
Answer: 43

Question: With B19 as the binder, how does the percent of parent (% of wild-type intensity) read?
Answer: 2.7

Question: How did the percent of parent (% of wild-type intensity) turn out when B20 was run?
Answer: 3.3

Question: B21 was tested. Which percent of parent (% of wild-type intensity) did it give?
Answer: 1

Question: How did the percent of parent (% of wild-type intensity) turn out when B22 was run?
Answer: 34

Question: B23 was tested. Which percent of parent (% of wild-type intensity) did it give?
Answer: 30

Question: With B24 as the binder, how does the percent of parent (% of wild-type intensity) read?
Answer: 25

Question: With B25 as the binder, how does the percent of parent (% of wild-type intensity) read?
Answer: 2.8
